{"source": "patent US20230189818A1", "about": "“RNA-BASED CONTROL OF BOTRYTIS” (priority 2021, published 2023)", "molecules": {"B1": {"name": "GS730: dsRNA trigger targeting B. cinerea Bcsec15 (XM_024692064.1); trigger SEQ ID NO 19, RNA 31, reverse complement 43 (nucleic acid, listed as Botrytis cinerea)", "sense": "UCAACGCAGUCUCCAAAGCUUUGGAUGAAUUCGAUAACCCGGAUGUUAUUCUGCAAACCAAGAAUGUGAUAGCAUUGUUCAUCCAAACAAUGGAGGGUUGGGGAUAUUCAGUUGCCAUAUUAGAUGCUUAUGUGCUUAAGCUUUUCUAUAGAUAUGCUGAUUUGUUAAAACGGAAAUUCAGCACAGAUUUUCAACAGAUUGUGUCUACCGAUGAAUACAUGCCUAUGCCUGUCAAUAGCGAAGAAGACUUUGAUAAAAUCAUUCAAGUCAGUUGGUAUGUUCCGGACAGACCGAAAGAAGAAUACACAUUCCCCGGUGUAUUACCAUUCUCCCAGAUGUACCCAAUGUGCUGUAUAGAUAUCAGAAAUUUCCUGAAUCGAUUCUACUUCAUAAUGGAUGAUCAUUUUCAACAGCCAAACAUUAUUGAUGAGACACUUAAGAAGUCGAUAGAUGAGCUUCUGUCUGAGGAUAUUUGUGA", "antisense": "UCACAAAUAUCCUCAGACAGAAGCUCAUCUAUCGACUUCUUAAGUGUCUCAUCAAUAAUGUUUGGCUGUUGAAAAUGAUCAUCCAUUAUGAAGUAGAAUCGAUUCAGGAAAUUUCUGAUAUCUAUACAGCACAUUGGGUACAUCUGGGAGAAUGGUAAUACACCGGGGAAUGUGUAUUCUUCUUUCGGUCUGUCCGGAACAUACCAACUGACUUGAAUGAUUUUAUCAAAGUCUUCUUCGCUAUUGACAGGCAUAGGCAUGUAUUCAUCGGUAGACACAAUCUGUUGAAAAUCUGUGCUGAAUUUCCGUUUUAACAAAUCAGCAUAUCUAUAGAAAAGCUUAAGCACAUAAGCAUCUAAUAUGGCAACUGAAUAUCCCCAACCCUCCAUUGUUUGGAUGAACAAUGCUAUCACAUUCUUGGUUUGCAGAAUAACAUCCGGGUUAUCGAAUUCAUCCAAAGCUUUGGAGACUGCGUUGA"}}, "key": {"[1]": {"system": "Botrytis cinerea isolate (B05.10)", "test": "Detached leaf assay (tomato leaflets, lesion size)", "format": "in vivo", "conditions": "five days post inoculation, vs untreated inoculated control", "method_in_brief": "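Tomato (Brandywine) detached lateral leaflets were sprayed with treatment in 0.03% Silwet L-77 24 h before inoculation. Two 10 μL drops of 1×10^5 conidia/mL in 7% grape juice were applied per leaflet, which was then incubated at 23 °C, ~75% RH, 12/12 light. Lesion diameter was measured at 5 DPI against the untreated inoculated control, ten replicates.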"}, "[2]": {"system": "Botrytis", "test": "Open-air field trial on strawberry (Example 4.1, AUDPC of % disease severity)", "format": "in vivo, Botrytis cinerea", "conditions": "GS730 100 g ai/ha, FIG. 6", "description": "RNAi compositions, each containing a dsRNA comprising a trigger sequence (GS349 or GS730) described herein were evaluated for ability to control botrytis on strawberry in open-air field trials. Non-formulated (dissolved in water) GS349 and GS730 were each tank mixed with water and the standard adjuvant Silwet L-77 0.1% v/v. GS349 was tested at concentrations of 25 grams of active ingredient per hectare (g ai/ha) and 50 g ai/ha and GS730 was tested at a concentration of 100 g ai/ha. Serenade ASO 85 g ai/ha, a standard biological fungicide, was used as a positive control. A second positive control group was treated with alternating applications of the chemical standards Teldor Plus 750 g ai/ha, Signum 600 g ai/ha, and Switch 500 g ai/ha. The trial also included an untreated group as a negative control.\nTest compositions and positive controls were sprayed onto strawberry plants in 12 applications. Plants were observed beginning 14 days after the first application and disease progress was assessed by determining the percentage of surface area of fruit that was affected by the disease (% Disease Severity). Disease severity was plotted over the length of the trial observations and area under disease progress curve (AUDPC) was calculated in order to measure the cumulative effect of the various treatments across multiple assessments. Means were separated according to Fisher's LSD, alpha (p)≤0.05."}, "[3]": {"system": "Botrytis", "test": "Open-air field trials on grape (Example 4.2, AUDPC of % disease severity)", "format": "in vivo, Botrytis cinerea", "conditions": "for Disease compared with the biological standard program of Serenade and JMS Stylet Oil (AUDPC) / Disease caused by Botrytis compared to untreated check (AUDPC): both trials; for Disease caused by Botrytis compared to untreated check (AUDPC): FIGS. 7 and 8; for Disease compared with the chemical program of Miravis Prime and Switch (AUDPC): second trial", "description": "RNAi compositions, each containing a dsRNA comprising a trigger sequence (GS730) described herein, were evaluated for ability to control Botrytis on grape in open-air field trials. Non-formulated and formulated compositions were tested. Non-formulated compositions were tank mixed with water and Silwet L-77 0.1% v/v. Formulated samples were formulated with RO water, propylene glycol, a linear alcohol ethoxylate, a lignosulfanate, sodium citrate dihydate, a polyacrylic acid polymer, two biocide compositions, anhydrous citric acid, and an antifoam, all of which are readily commercially available. Non-formulated and formulated GS 730 were each tested at concentrations of 50 g ai/ha and 100 g ai/ha. A standard biological program of Serenade 9.4 I/ha alternating with JMS Sylet Oil 1% v/v was used as a positive control. Chemical standards, Miravis Prime 392 g ai/ha ai and Switch 610 g ai/ha were applied to a second positive control group in alternating applications. An untreated group was used as a negative control\nPositive controls were applied to grape plants at bloom, bunch closure, veraison, and 7-10 days before harvest. Test applications were made on the same timing as the positive controls with additional applications seven days after bloom, bunch closure, veraison, and 7-10 days before harvest. Disease state was evaluated over the course of three to four weeks, starting two days after the last application (Slide 3) or 18 days […] the last application. Percent Disease Severity was assessed and AUDPC was calculated in the same manner as noted in Example 4.1."}, "[4]": {"conditions": "non-formulated, 50 and 100 g ai/ha"}}, "data": [{"molecule": "B1", "values": [{"measurement": "Average % Reduction in Lesion Size", "setting": "[1]; 30 ppm", "value": 16.38, "unit": "%"}, {"measurement": "Average % Reduction in Lesion Size", "setting": "[1]; 50 ppm", "value": 25.11, "unit": "%"}, {"measurement": "Disease control compared with the biological standard, Serenade (AUDPC)", "setting": "[2]; GS349 25 g ai/ha, Serenade ASO 85 g ai/ha", "value": "not significantly different"}, {"measurement": "Control of Botrytis vs. the untreated control (AUDPC)", "setting": "[2]; non-formulated, Silwet L-77 0.1% v/v, 12 applications, GS349 25 and 50 g ai/ha", "value": "significant control"}, {"measurement": "Disease compared with the biological standard program of Serenade and JMS Stylet Oil (AUDPC)", "setting": "[3]; formulated, 100 g ai/ha", "value": "not statistically different"}, {"measurement": "Disease caused by Botrytis compared to untreated check (AUDPC)", "setting": "[3]; formulated, 100 g ai/ha", "value": "significantly reduced disease"}, {"measurement": "Disease compared with the chemical program of Miravis Prime and Switch (AUDPC)", "setting": "[3]; formulated, 100 g ai/ha", "value": "comparable"}, {"measurement": "Disease compared with the biological standard program of Serenade and JMS Stylet Oil (AUDPC)", "setting": "[3]; [4]", "value": "not statistically different"}, {"measurement": "Disease caused by Botrytis compared to untreated check (AUDPC)", "setting": "[3]; [4]", "value": "significantly reduced disease"}, {"measurement": "Disease compared with the chemical program of Miravis Prime and Switch (AUDPC)", "setting": "[3]; [4]", "value": "comparable"}]}]}
